{"source": "patent US20220283175A1", "about": "(ENCODIA, published 2022)", "binders": {"B1": {"name": "(SAB)AAAAE (peptide)", "peptide": "{Benzoyl(4-SO2NH2)}-AAAAE-NH2", "SMILES": "C[C@H](NC(=O)c1ccc(S(N)(=O)=O)cc1)C(=O)N[C@@H](C)C(=O)N[C@@H](C)C(=O)N[C@@H](C)C(=O)N[C@@H](CCC(=O)O)C(N)=O"}, "B2": {"name": "(SAB)SAAAE (peptide)", "peptide": "{Benzoyl(4-SO2NH2)}-SAAAE-NH2", "SMILES": "C[C@H](NC(=O)[C@H](C)NC(=O)[C@H](CO)NC(=O)c1ccc(S(N)(=O)=O)cc1)C(=O)N[C@@H](C)C(=O)N[C@@H](CCC(=O)O)C(N)=O"}, "B3": {"name": "(SAB)HAAAE (peptide)", "peptide": "{Benzoyl(4-SO2NH2)}-HAAAE-NH2", "SMILES": "C[C@H](NC(=O)[C@H](C)NC(=O)[C@H](Cc1c[nH]cn1)NC(=O)c1ccc(S(N)(=O)=O)cc1)C(=O)N[C@@H](C)C(=O)N[C@@H](CCC(=O)O)C(N)=O"}, "B4": {"name": "(SAB)AFAAE (peptide)", "peptide": "{Benzoyl(4-SO2NH2)}-AFAAE-NH2", "SMILES": "C[C@H](NC(=O)c1ccc(S(N)(=O)=O)cc1)C(=O)N[C@@H](Cc1ccccc1)C(=O)N[C@@H](C)C(=O)N[C@@H](C)C(=O)N[C@@H](CCC(=O)O)C(N)=O"}, "B5": {"name": "(SAB)FAAAE (peptide)", "peptide": "{Benzoyl(4-SO2NH2)}-FAAAE-NH2", "SMILES": "C[C@H](NC(=O)[C@H](C)NC(=O)[C@H](Cc1ccccc1)NC(=O)c1ccc(S(N)(=O)=O)cc1)C(=O)N[C@@H](C)C(=O)N[C@@H](CCC(=O)O)C(N)=O"}, "B6": {"name": "(SAB)EAAAE (peptide)", "peptide": "{Benzoyl(4-SO2NH2)}-EAAAE-NH2", "SMILES": "C[C@H](NC(=O)[C@H](C)NC(=O)[C@H](CCC(=O)O)NC(=O)c1ccc(S(N)(=O)=O)cc1)C(=O)N[C@@H](C)C(=O)N[C@@H](CCC(=O)O)C(N)=O"}, "B7": {"name": "(SAB)LAAAE (peptide)", "peptide": "{Benzoyl(4-SO2NH2)}-LAAAE-NH2", "SMILES": "CC(C)C[C@H](NC(=O)c1ccc(S(N)(=O)=O)cc1)C(=O)N[C@@H](C)C(=O)N[C@@H](C)C(=O)N[C@@H](C)C(=O)N[C@@H](CCC(=O)O)C(N)=O"}}, "assay_in_all_cases": "cell-based or functional assay", "key": {"[1]": {"target": "T1, wild-type human carbonic anhydrase II (hCAII) protein (human, UniProt P00918 4-259)"}, "[2]": {"target": "T1, wild-type human carbonic anhydrase II …", "remark": "listed apart in the source"}, "[3]": {"target": "T1, wild-type human carbonic anhydrase II …", "remark": "listed apart in the source"}}, "note": "No end group written: not given here. *: point of attachment. Benzoyl(4-SO2NH2) = NS(=O)(=O)c1ccc(C(=O)*)cc1; M65 = not defined here; M67 = not defined here; M75 = not defined here; M76 = not defined here; M88 = not defined here"}
{"binder": "M88-AAEIR (not fully specified; printed as M88-AAEIR; reading uncertain)", "note": "[M88-AAEIR]", "values": [{"measurement": "NTM-AAEIR IC50 (µM), colorimetric IC50 assay", "setting": "[1]", "value": 0.095, "unit": "µM"}]}
{"binder": "M67-AAEIR (not fully specified; printed as M67-AAEIR; reading uncertain)", "note": "[M67-AAEIR]", "values": [{"measurement": "NTM-AAEIR IC50 (µM), colorimetric IC50 assay", "setting": "[1]", "value": 0.073, "unit": "µM"}]}
{"binder": "M65-AAEIR (not fully specified; printed as M65-AAEIR; reading uncertain)", "note": "[M65-AAEIR]", "values": [{"measurement": "NTM-AAEIR IC50 (µM), colorimetric IC50 assay", "setting": "[1]", "value": 0.515, "unit": "µM"}]}
{"binder": "M75-AAEIR (not fully specified; printed as M75-AAEIR; reading uncertain)", "note": "[M75-AAEIR]", "values": [{"measurement": "NTM-AAEIR IC50 (µM), colorimetric IC50 assay", "setting": "[1]", "value": 0.067, "unit": "µM"}]}
{"binder": "M76-AAEIR (not fully specified; printed as M76-AAEIR; reading uncertain)", "note": "[M76-AAEIR]", "values": [{"measurement": "NTM-AAEIR IC50 (µM), colorimetric IC50 assay", "setting": "[1]", "value": 0.077, "unit": "µM"}]}
{"binder": "B1", "values": [{"measurement": "IC50 (µM), hCAII functional assay", "setting": "[2]", "value": 0.0484, "unit": "µM"}]}
{"binder": "B2", "values": [{"measurement": "IC50 (µM), hCAII functional assay", "setting": "[2]", "value": 0.153, "unit": "µM"}]}
{"binder": "B3", "values": [{"measurement": "IC50 (µM), hCAII functional assay", "setting": "[2]", "value": 0.148, "unit": "µM"}]}
{"binder": "B4", "values": [{"measurement": "IC50 (µM), hCAII functional assay", "setting": "[2]", "value": 0.183, "unit": "µM"}, {"measurement": "P2 dependence: fold difference of IC50 (SABA-AF against SABA-AA)", "setting": "[3]", "value": "~4", "unit": "fold"}]}
{"binder": "B5", "values": [{"measurement": "IC50 (µM), hCAII functional assay", "setting": "[2]", "value": 0.045, "unit": "µM"}]}
{"binder": "B6", "values": [{"measurement": "IC50 (µM), hCAII functional assay", "setting": "[2]", "value": 0.0993, "unit": "µM"}]}
{"binder": "B7", "values": [{"measurement": "IC50 (µM), hCAII functional assay", "setting": "[2]", "value": 0.0284, "unit": "µM"}]}
